For this data set, the system named is F1*sub RNA substrate (template-directed ligation). The data set can be described thus: fraction ligated after 30 min (ligated reads / total reads); higher = more ligase activity; sequences stand for … in GAGACCGCAACTGAAAAGTTGT…AGTTCTGCACGTAGAAGCAAAAGGC
To be noted: 42 °C. In short, it runs like this: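 The ligase ribozyme variants were produced by PCR amplification of oligo-pool templates, T7 transcription and purification on gel. Their ligated and unligated forms were gel-separated, then reverse transcribed with barcoded primers before MiSeq sequencing. Core bases were filtered at a quality of ≥20, and fraction ligated per variant was ligated reads over total reads.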
For “TATCACTTTCGTAGACACTTTGGAGGGTTGA [3d1515]”, the fraction ligated came out at 0.0412.
In turn, “TATCACTTTCGTAGACACTTTGGATGGGTTA [3d1517]” displayed a fraction ligated of 0.631.
Under “TATCACTTTCGTAGACACTTTGGATGGGTTG [3d1518]” stands 0.786; under “TATCACTTTCGTAGACACTTTGGATGGGTTGA [2d150]”, 0.802; under “TATCACTTTCGTAGACACTTTGGATGGTTGA [3d1516]”, 0.0829.
In turn, “TATCACTTTCGTAGACACTTTGGTGGGTTGA [3d1514]” registered a fraction ligated of 0.0546.
Under “TATCACTTTCGTAGACATTTGGATGGGTTGA [3d1511]” stands 0.77.
Under “TATCACTTTCGTAGACCTTTGGATGGGTTGA [3d1510]” stands 0.78; under “TATCACTTTCGTAGCACTTTGGATGGGTTGA [3d1508]”, 0.826.
The value for “TATCACTTTCGTGACACTTTGGATGGGTTGA [3d1506]” was 0.813; that for “TATCACTTTCTAAACACTTTGGATGGGTTGA [3d1481]” was 0.79; that for “TATCACTTTCTAAGAACTTTGGATGGGTTGA [3d1483]” was 0.87.
“TATCACTTTCTAAGACACTTGGATGGGTTGA [3d1486]” came in with a fraction ligated of 0.767.
“TATCACTTTCTAAGACACTTTGATGGGTTGA [3d1487]” came in with a fraction ligated of 0.77.
Sequence “TATCACTTTCTAAGACACTTTGGAGGGTTGA [3d1489]” returned a fraction ligated of 0.026.
Under “TATCACTTTCTAAGACACTTTGGATGGGTTA [3d1491]” stands 0.68; under “TATCACTTTCTAAGACACTTTGGATGGGTTG [3d1492]”, 0.785.
The value for “TATCACTTTCTAAGACACTTTGGATGGGTTGA [2d148]” was 0.794; that for “TATCACTTTCTAAGACACTTTGGATGGTTGA [3d1490]” was 0.114.
In turn, “TATCACTTTCTAAGACACTTTGGTGGGTTGA [3d1488]” yielded a fraction ligated of 0.101.
The value for “TATCACTTTCTAAGACATTTGGATGGGTTGA [3d1485]” was 0.818; that for “TATCACTTTCTAAGACCTTTGGATGGGTTGA [3d1484]” was 0.783.
The value for “TATCACTTTCTAAGCACTTTGGATGGGTTGA [3d1482]” was 0.788; that for “TATCACTTTCTAGACACTTTGGATGGGTTGA [3d1480]” was 0.765; that for “TATCACTTTGAAGACACTTTGGATGGGTTGA [3d1465]” was 0.819.
Under “TATCACTTTGTAAACACTTTGGATGGGTTGA [3d1467]” stands 0.823.
Take “TATCACTTTGTAAGAACTTTGGATGGGTTGA [3d1469]”: the fraction ligated was found to be 0.866.
Under “TATCACTTTGTAAGACACTTGGATGGGTTGA [3d1472]” stands 0.802; under “TATCACTTTGTAAGACACTTTGATGGGTTGA [3d1473]”, 0.793; under “TATCACTTTGTAAGACACTTTGGAGGGTTGA [3d1475]”, 0.0352.
Under “TATCACTTTGTAAGACACTTTGGATGGGTTA [3d1477]” stands 0.776.
Turning to “TATCACTTTGTAAGACACTTTGGATGGGTTG [3d1478]”, the fraction ligated was found to be 0.82.
The value for “TATCACTTTGTAAGACACTTTGGATGGGTTGA [2d147]” was 0.838; that for “TATCACTTTGTAAGACACTTTGGATGGTTGA [3d1476]” was 0.119; that for “TATCACTTTGTAAGACACTTTGGTGGGTTGA [3d1474]” was 0.0671.
Under “TATCACTTTGTAAGACATTTGGATGGGTTGA [3d1471]” stands 0.837.
Under “TATCACTTTGTAAGACCTTTGGATGGGTTGA [3d1470]” stands 0.769; under “TATCACTTTGTAAGCACTTTGGATGGGTTGA [3d1468]”, 0.783; under “TATCACTTTGTAGACACTTTGGATGGGTTGA [3d1466]”, 0.843.
On to “TATCACTTTTAAGACACTTTGGATGGGTTGA [3d1464]”, for which the fraction ligated came to 0.768.
Sequence “TATCAGTCGTAAGACACTTTGGATGGGTTGA [3d1121]” showed a fraction ligated of 0.764.
Under “TATCATGCGTAAGACACTTTGGATGGGTTGA [3d1123]” stands 0.833; under “TATCATGTCGAAGACACTTTGGATGGGTTGA [3d1126]”, 0.792.
“TATCATGTCGTAAACACTTTGGATGGGTTGA [3d1128]” gave a fraction ligated of 0.765.
Under “TATCATGTCGTAAGAACTTTGGATGGGTTGA [3d1130]” stands 0.848; under “TATCATGTCGTAAGACACTTGGATGGGTTGA [3d1133]”, 0.776.
For “TATCATGTCGTAAGACACTTTGATGGGTTGA [3d1134]”, the fraction ligated is 0.816.
Under “TATCATGTCGTAAGACACTTTGGAGGGTTGA [3d1136]” stands 0.0722; under “TATCATGTCGTAAGACACTTTGGATGGGTTA [3d1138]”, 0.641; under “TATCATGTCGTAAGACACTTTGGATGGGTTG [3d1139]”, 0.784.
“TATCATGTCGTAAGACACTTTGGATGGGTTGA [2d109]” registered a fraction ligated of 0.792.
The value for “TATCATGTCGTAAGACACTTTGGATGGTTGA [3d1137]” was 0.268; that for “TATCATGTCGTAAGACACTTTGGTGGGTTGA [3d1135]” was 0.523; that for “TATCATGTCGTAAGACATTTGGATGGGTTGA [3d1132]” was 0.801.
The value for “TATCATGTCGTAAGACCTTTGGATGGGTTGA [3d1131]” was 0.778; that for “TATCATGTCGTAAGCACTTTGGATGGGTTGA [3d1129]” was 0.761.
The value for “TATCATGTCGTAGACACTTTGGATGGGTTGA [3d1127]” was 0.817; that for “TATCATGTCTAAGACACTTTGGATGGGTTGA [3d1125]” was 0.759.
Consider “TATCATGTGTAAGACACTTTGGATGGGTTGA [3d1124]”, for which the fraction ligated amounted to 0.84.
The value for “TATCATTCGTAAGACACTTTGGATGGGTTGA [3d1122]” was 0.776; that for “TATCATTGCGAAGACACTTTGGATGGGTTGA [3d1158]” was 0.8.
Turning to “TATCATTGCGTAAACACTTTGGATGGGTTGA [3d1160]”, the fraction ligated was 0.814.
Under “TATCATTGCGTAAGAACTTTGGATGGGTTGA [3d1162]” stands 0.837; under “TATCATTGCGTAAGACACTTGGATGGGTTGA [3d1165]”, 0.773; under “TATCATTGCGTAAGACACTTTGATGGGTTGA [3d1166]”, 0.681.
Under “TATCATTGCGTAAGACACTTTGGAGGGTTGA [3d1168]” stands 0.0323; under “TATCATTGCGTAAGACACTTTGGATGGGTTA [3d1170]”, 0.447; under “TATCATTGCGTAAGACACTTTGGATGGGTTG [3d1171]”, 0.815.
Under “TATCATTGCGTAAGACACTTTGGATGGGTTGA [2d111]” stands 0.819.
Turning to “TATCATTGCGTAAGACACTTTGGATGGTTGA [3d1169]”, the fraction ligated was found to be 0.0894.
Under “TATCATTGCGTAAGACACTTTGGTGGGTTGA [3d1167]” stands 0.0667.
The sequence “TATCATTGCGTAAGACATTTGGATGGGTTGA [3d1164]” yielded a fraction ligated of 0.802.
The value for “TATCATTGCGTAAGACCTTTGGATGGGTTGA [3d1163]” was 0.815.
The value for “TATCATTGCGTAAGCACTTTGGATGGGTTGA [3d1161]” was 0.799.
In turn, “TATCATTGCGTAGACACTTTGGATGGGTTGA [3d1159]” gave a fraction ligated of 0.823.
The value for “TATCATTGCTAAGACACTTTGGATGGGTTGA [3d1157]” was 0.784.
“TATCATTGGTAAGACACTTTGGATGGGTTGA [3d1156]” yielded a fraction ligated of 0.809.
The value for “TATCATTGTCAAGACACTTTGGATGGGTTGA [3d1187]” was 0.783.
Turning to “TATCATTGTCGAAACACTTTGGATGGGTTGA [3d1202]”, the fraction ligated came to 0.81.
The value for “TATCATTGTCGAAGAACTTTGGATGGGTTGA [3d1204]” was 0.809.
Under “TATCATTGTCGAAGACACTTGGATGGGTTGA [3d1207]” stands 0.771; under “TATCATTGTCGAAGACACTTTGATGGGTTGA [3d1208]”, 0.772.
The sequence “TATCATTGTCGAAGACACTTTGGAGGGTTGA [3d1210]” gave a fraction ligated of 0.0625.
The value for “TATCATTGTCGAAGACACTTTGGATGGGTTA [3d1212]” was 0.475; that for “TATCATTGTCGAAGACACTTTGGATGGGTTG [3d1213]” was 0.796; that for “TATCATTGTCGAAGACACTTTGGATGGGTTGA [2d114]” was 0.798.
Under “TATCATTGTCGAAGACACTTTGGATGGTTGA [3d1211]” stands 0.21.
Under “TATCATTGTCGAAGACACTTTGGTGGGTTGA [3d1209]” stands 0.229; under “TATCATTGTCGAAGACATTTGGATGGGTTGA [3d1206]”, 0.794; under “TATCATTGTCGAAGACCTTTGGATGGGTTGA [3d1205]”, 0.768.
The sequence “TATCATTGTCGAAGCACTTTGGATGGGTTGA [3d1203]” displayed a fraction ligated of 0.784.
The value for “TATCATTGTCGAGACACTTTGGATGGGTTGA [3d1201]” was 0.783; that for “TATCATTGTCGTAAAACTTTGGATGGGTTGA [3d1227]” was 0.787.
The value for “TATCATTGTCGTAAACACTTGGATGGGTTGA [3d1230]” was 0.778; that for “TATCATTGTCGTAAACACTTTGATGGGTTGA [3d1231]” was 0.597.
Under “TATCATTGTCGTAAACACTTTGGAGGGTTGA [3d1233]” stands 0.0387.
“TATCATTGTCGTAAACACTTTGGATGGGTTA [3d1235]” gave a fraction ligated of 0.472.

The record behind these values is the supplement of paper PMC6755084.
